Data set [1] deals with T1, myo-inositol monophosphatase 1 (IMPA1), purified bovine brain (bovine, UniProt P20456 1-277).
T1 sequence (looked up): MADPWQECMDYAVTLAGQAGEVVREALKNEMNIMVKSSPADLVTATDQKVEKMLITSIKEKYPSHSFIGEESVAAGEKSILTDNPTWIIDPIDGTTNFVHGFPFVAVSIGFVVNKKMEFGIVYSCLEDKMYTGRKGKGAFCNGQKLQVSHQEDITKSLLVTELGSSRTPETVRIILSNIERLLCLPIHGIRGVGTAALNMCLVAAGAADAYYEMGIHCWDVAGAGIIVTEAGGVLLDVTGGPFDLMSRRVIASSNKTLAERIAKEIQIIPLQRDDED
Kind of data set: cross-linking.

Data set [2] deals with the molecule itself. The experiment in a line: cross-linking.

The text below walks through data of paper PMC3351107 (Cerebellum (London, England), 2009).

B1: S100B, purified bovine brain (natural protein, UniProt P02638 1-92, looked up)
chain: MSELEKAVVALIDVFHQYSGREGDKHKLKKSELKELINNELSHFLEEIKEQEVVDKVMETLDSDGDGECDFQEFMAFVAMITTACHEFFEHE
For the molecule B1, the binding result in data set [1] and in data set [2] was “binds” throughout.
